Columns and labels:
[1] = system: HCT116 cells; experiment: Annexin V (and SytoxBlue) flow cytometry for apoptosis; format: cell-based, Homo sapiens; details: for Mean ± SEM (Prism T-tests, Annexin V for MPZ-GFP): N=3, values agree with avg Annexin V+; for avg Annexin V+ / avg Annexin V-: mean of 3 replicates; for AnnexinV+ (Statistic, single cells) / AnnexinV- (Statistic, single cells) / GFP+ (Statistic, single cells) / GFP- (Statistic, single cells) / Q1: APC-A- , DAPI-A+ (Statistic, single cells) / Q2: APC-A+ , DAPI-A+ (Statistic, single cells) / Q3: APC-A+ , DAPI-A- (Statistic, single cells) / Q4: APC-A- , DAPI-A- (Statistic, single cells) / SytoxBlue+ (Statistic, single cells) / SytoxBlue- (Statistic, single cells) / dead cells (Statistic) / FITC-A+ (Statistic, dead cells) / FITC-A- (Statistic, dead cells): 2018-01-17 MPZ; for AnnexinV+ (Statistic, single cells): gate all cells/Single Cells/AnnexinV+; for AnnexinV- (Statistic, single cells): gate all cells/Single Cells/AnnexinV-; for GFP+ (Statistic, single cells): gate all cells/Single Cells/GFP+; for GFP- (Statistic, single cells): gate all cells/Single Cells/GFP-; for Q1: APC-A- , DAPI-A+ (Statistic, single cells): gate all cells/Single Cells/Q1; for Q2: APC-A+ , DAPI-A+ (Statistic, single cells): gate all cells/Single Cells/Q2; for Q3: APC-A+ , DAPI-A- (Statistic, single cells): gate all cells/Single Cells/Q3; for Q4: APC-A- , DAPI-A- (Statistic, single cells): gate all cells/Single Cells/Q4; for SytoxBlue+ (Statistic, single cells): gate all cells/Single Cells/SytoxBlue+; for SytoxBlue- (Statistic, single cells): gate all cells/Single Cells/SytoxBlue-; for dead cells (Statistic): gate dead cells of all events; for FITC-A+ (Statistic, dead cells): gate dead cells/Single Cells/FITC-A+; for FITC-A- (Statistic, dead cells): gate dead cells/Single Cells/FITC-A-
Protocol: Cells seeded in a 6-well plate were transfected with the specified plasmid for 24 hr and harvested via trypsinization in complete media to allow a 30 min recovery at 37°C. The samples were then centrifuged at 500xg for 5 min and resuspended In 150 μl of a 1:20 dilution of Annexin V-AlexaFluor 647 conjugate (Thermo Scientific #A23204). Samples were transferred to a 96-well U-bottom plate and incubated in the dark for 15 min at RT. The distribution of apoptotic cells was determined by flow cytometry on a BD LSR II.

[2] = system: caspase 8 in HCT116 lysates; experiment: Caspase 8 activity (caspase glo 8) of cell lysates / IP inputs; format: cell-based, Homo sapiens; details: for average fold change rel to empty: mean of 4 dilutions
Protocol: Cells harvested from a 6-well plate were resuspended in 100 μl of lysis buffer (30 mM HEPES pH 7.2, 150 mM NaCl, 1% Triton X-100) and lysed via needle shearing (25G, 10 passes) followed by a 30 min incubation on ice. Supernatant was collected after centrifuging at 1000xg for 5 min. For the caspase activity assay, 10 μl of supernatant diluted with lysis buffer (1:25, 1:50, 1:100 to stay within linear range of luminescence measurements) was incubated with 10 μl of the luminogenic caspase glo 8 substrate (Promega #PRG8200) in a 384-white walled plate (Corning 3574) for 45 min at RT before measuring luminescence on a Spectramax-M5 plate reader.

[3] = siRNA DR5 (siDR5), 2017-01-17 Replicate
[4] = siRNA DR5 (siDR5), 2018-06-21 Rep 1
[5] = siRNA DR5 (siDR5), 2018-06-21 Rep 2
[6] = siRNA scrambled, 2017-01-17 Replicate
[7] = siRNA scrambled, Tg sample with empty construct
[8] = siRNA scrambled, 2018-06-21 Rep 1
[9] = siRNA scrambled, 2018-06-21 Rep 2

B1: MPZ-GFP: myelin protein zero with a C-terminal monomeric EGFP, expressed from plasmid (protein)
chain: IVVYTDREVHGAVGSRVTLHCSFWSSEWVSDDISFTWRYQPEGGRDAISIFHYAKGQPYIDEVGTFKERIQWVGDPRWKDGSIVIHNLDYSDNGTFTCDVKNPPDIVGKTSQVTLYVFEKVPTRYGVVLGAVIGGVLGVVLLLLLLFYVVRYCWLRRQAALQRRLSAMEKGKLHKPGKDASKRGRQTPVLYAMLDHSRSTKAVSEKKAKGLGESRKDKK
modifications: left off: monomeric EGFP, C-terminal, kept
notes: myelin protein zero with a C-terminal monomeric EGFP, expressed from plasmid
[1]; MPZ-GFP siDR5 vs. MPZ-GFP
  Difference between means: -18 ± 5.2
[1]; MPZ-GFP, mean ± SEM, n=3
  Mean ± SEM (Fig 1S2D): 37.91 ± 5.341, n=3
[1]; no siDR5, mean ± SEM
  Mean ± SEM (Prism T-tests, Annexin V for MPZ-GFP): 33 ± 4.7 N=3
[1]; siDR5, mean ± SEM
  Mean ± SEM (Prism T-tests, Annexin V for MPZ-GFP): 15 ± 2.3 N=3
[1]; [3]
  Annexin V+: 10.4
  Annexin V-: 89.6
[1]; [4]
  Annexin V+: 17
  Annexin V-: 83
[1]; [5]
  Annexin V+: 17.8
  Annexin V-: 82.2
[1]; siRNA DR5 (siDR5)
  avg Annexin V+: 15.0667
  avg Annexin V-: 84.9333
[1]; siRNA DR5
  AnnexinV+ (Statistic, single cells): 10.4
  AnnexinV- (Statistic, single cells): 89.6
  GFP+ (Statistic, single cells): 40.8
  GFP- (Statistic, single cells): 59.2
  Q1: APC-A- , DAPI-A+ (Statistic, single cells): 1.26
  Q2: APC-A+ , DAPI-A+ (Statistic, single cells): 8.07
  Q3: APC-A+ , DAPI-A- (Statistic, single cells): 1.36
  Q4: APC-A- , DAPI-A- (Statistic, single cells): 89.3
  SytoxBlue+ (Statistic, single cells): 9.1
  SytoxBlue- (Statistic, single cells): 90.9
  dead cells (Statistic): 6.03
  FITC-A+ (Statistic, dead cells): 43.4
  FITC-A- (Statistic, dead cells): 56.6
[1]; siRNA TRAIL
  AnnexinV+ (Statistic, single cells): 20.8
  AnnexinV- (Statistic, single cells): 79.2
  GFP+ (Statistic, single cells): 47.9
  GFP- (Statistic, single cells): 52.1
  Q1: APC-A- , DAPI-A+ (Statistic, single cells): 2.56
  Q2: APC-A+ , DAPI-A+ (Statistic, single cells): 16.8
  Q3: APC-A+ , DAPI-A- (Statistic, single cells): 2.29
  Q4: APC-A- , DAPI-A- (Statistic, single cells): 78.3
  SytoxBlue+ (Statistic, single cells): 18.9
  SytoxBlue- (Statistic, single cells): 81.1
  dead cells (Statistic): 10.4
  FITC-A+ (Statistic, dead cells): 43.4
  FITC-A- (Statistic, dead cells): 56.6
[1]; [6]
  Annexin V+: 41.8
  Annexin V-: 58.2
[1]; [7]
  AnnexinV+ (Statistic, single cells): 41.8
  AnnexinV- (Statistic, single cells): 58.2
  GFP+ (Statistic, single cells): 60.1
  GFP- (Statistic, single cells): 39.9
  Q1: APC-A- , DAPI-A+ (Statistic, single cells): 10.7
  Q2: APC-A+ , DAPI-A+ (Statistic, single cells): 31.7
  Q3: APC-A+ , DAPI-A- (Statistic, single cells): 8.04
  Q4: APC-A- , DAPI-A- (Statistic, single cells): 49.5
  SytoxBlue+ (Statistic, single cells): 40
  SytoxBlue- (Statistic, single cells): 60
  dead cells (Statistic): 22
  FITC-A+ (Statistic, dead cells): 37.6
  FITC-A- (Statistic, dead cells): 62.4
[1]; [8]
  Annexin V+: 25.8
  Annexin V-: 74.2
[1]; [9]
  Annexin V+: 32
  Annexin V-: 68
[1]; siRNA scrambled
  avg Annexin V+: 33.2
  avg Annexin V-: 66.8
[2]; 3 hr
  average fold change rel to empty: 0.9963 fold
[2]; 7 hr
  average fold change rel to empty: 0.909 fold
[2]; 10 hr
  average fold change rel to empty: 1.233 fold
[2]; 20 hr
  average fold change rel to empty: 1.145 fold
[2]; 24 hr
  average fold change rel to empty: 2.224 fold
[2]; Rep 1, HCT116 lysate, amount not given, normalized RLUs relative to empty (GFP), average over four lysate dilutions
  average fold change: 2.827 fold
[2]; input, dilution 0.01, rep1
  fold change relative to empty: 2.2
[2]; input, dilution 0.01, rep2
  fold change relative to empty: 1.925
[2]; input, dilution 0.01, rep3
  fold change relative to empty: 0.9528
[2]; input, dilution 0.02, rep1
  fold change relative to empty: 2.798
[2]; input, dilution 0.02, rep2
  fold change relative to empty: 1.811
[2]; input, dilution 0.02, rep3
  fold change relative to empty: 1.706
[2]; input, dilution 0.02, second listing, relative to avg. empty, average of rep1-rep3
  avg fold change: 1.9619
[2]; input, dilution 0.02, second listing, rep2
  fold change relative to empty: 1.832
[2]; input, dilution 0.02, second listing, rep3
  fold change relative to empty: 1.342
[2]; inputs of GFP pulldown, n=6
  fold change in caspase 8 activity relative to empty, Mean ± SEM: 1.899 ± 0.2476, n=6 fold

— publication PMC7041945, “Misfolded proteins bind and activate death receptor 5 to trigger apoptosis during unresolved endoplasmic reticulum stress” (eLife, 2020)
